# Article PMC3235549
# Biological target: Recombinant RNMT (human) (UniProt O43148)
# Sequence of UniProt O43148 (O43148 whole entry): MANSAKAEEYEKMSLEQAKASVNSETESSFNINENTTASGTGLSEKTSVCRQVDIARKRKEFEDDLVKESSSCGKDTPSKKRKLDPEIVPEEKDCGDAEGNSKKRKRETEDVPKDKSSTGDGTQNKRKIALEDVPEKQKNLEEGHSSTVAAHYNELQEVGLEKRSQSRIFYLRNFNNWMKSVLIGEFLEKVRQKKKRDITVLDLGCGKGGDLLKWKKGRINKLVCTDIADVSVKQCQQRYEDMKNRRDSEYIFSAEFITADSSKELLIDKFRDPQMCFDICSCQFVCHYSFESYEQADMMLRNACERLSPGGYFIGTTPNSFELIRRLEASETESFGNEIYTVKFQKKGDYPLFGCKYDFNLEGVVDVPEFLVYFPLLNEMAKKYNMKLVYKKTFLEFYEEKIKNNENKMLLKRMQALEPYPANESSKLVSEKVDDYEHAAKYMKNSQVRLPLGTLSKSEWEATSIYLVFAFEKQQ
substance,measurement,value
Recombinant RAM (from UniProt Q9BTL3 1-118) (natural protein),"in vitro cap methyltransferase assay, 20 nM RNMT with 20 nM RAM (Figure 3D)",> 4 fold
